Reference: patent US20260069690A1

Target: S100A11 Q22R (mutant 25mer, peptide 60 / P60; residues not given) peptide on HLA-DR (human)
Experiment: MSGV1 TCR-transduced healthy-donor peripheral blood T cells with B cells pulsed with the Q22R peptide. Secretion was inhibited by anti-HLA-DR/-DP/-DQ but not by anti-HLA-ABC. TNFa and Granzyme B were also released. The TIL clone released IFNg, TNFa and Granzyme B, which anti-HLA-DR blocked but anti-HLA-DP and anti-HLA-DQ did not.; full-length, on cells
Settings: chains Valpha:Vbeta

B1: S100A11^Q22R-specific TCR (protein)
chain 1: SQKIEQNSEALNIQEGKTATLTCNYTNYSPAYLQWYRQDPGRGPVFLLLIRENEKEKRKERLKVTFDTTLKQSLFHITASQPADSATYLCALDFTGGGNKLTFGTGTQLKVEL
chain 2: NAGVMQNPRHLVRRRGQEARLRCSPMKGHSHVYWYRQLPEEGLKFMVYLQKENIIDESGMPKERFSAEFPKEGPSILRIQQVVRGDSAAYFCASSPSTGGIGDTQYFGPGTRLTVL
With B1 the IFNg released was over 15000 pg/mL.
